Laboratory results reported in patent US20240124582A1 (published 2024).

B1: hLAG-3 mAb 1 (1.4), constant region not stated (antibody, V domains shown)
VH: QVQLVQSGAEVKKPGASVKVSCKASGYTFTNYGMNWVRQAPGQGLEWMGWINTYTGESTYADDFEGRFVFSMDTSASTAYLQISSLKAEDTAVYYCARESLYDYYSMDYWGQGTTVTVSS
VL: DIVMTQTPLSLSVTPGQPASISCKSSQSLLHSDAKTYLNWLLQKPGQPPERLIYLVSELDSGVPDRFSGSGSGTDFTLKISRVEAEDVGVYYCWQGTHFPYTFGGGTKVEIK
notes: also called hLAG-3 1 (1.4)
B2: 25F7 (BMS-986016, Medarex/BMS), designated LAG-3 mAb A (antibody, V domains shown)
VH: QVQLQQWGAGLLKPSETLSLTCAVYGGSFSDYYWNWIRQPPGKGLEWIGEINHNGNTNSNPSLKSRVTLSLDTSKNQFSLKLRSVTAADTAVYYCAFGYSDYEYNWFDPWGQGTLVTVSS
VL: EIVLTQSPATLSLSPGERATLSCRASQSISSYLAWYQQKPGQAPRLLIYDASNRATGIPARFSGSGSGTDFTLTISSLEPEDFAVYYCQQRSNWPLTFGQGTNLEIK
notes: also called LAG-2 mAb A
B3: hLAG-3 mAb 6 (1.1) (antibody, V domains shown)
VH: QVQLVQSGAEVKKPGASVKVSCKASGYTFTDYNMDWVRQAPGQGLEWMGDINPDNGVTIYNQKFEGRVTMTTDTSTSTAYMELRSLRSDDTAVYYCAREADYFYFDYWGQGTTLTVSS
VL: DIQMTQSPSSLSASVGDRVTITCRASQDVSSVVAWYQQKPGKAPKLLIYSASYRYTGVPSRFSGSGSGTDFTLTISSLQPEDFATYYCQQHYSTPWTFGGGTKLEIK
notes: also called hLAG-3 6 (1.1); humanized LAG-3 mAb 6

target: T1, soluble LAG-3 fusion protein: extracelluar domain of cynomolgus monkey LAG-3 fused to murine IgG2a (cynomolgus monkey; murine); assay: SPR (Biacore); cynomolgus LAG-3-murine IgG2a captured on Fab2 goat-anti mouse Fc, antibody in solution
T1 construct: extracellular domain; also called cynomolgus LAG-3-murine IgG2a fusion protein
Method: In additional studies, the binding kinetics of the humanized antibodies hLAG-3 mAb 1 (1.4) and hLAG-3 mAb 6 (1.1), and a reference antibody LAG-3 mAb A to both human and cynomolgus monkey LAG-3 was investigated using Biacore analysis. In these studies, a soluble LAG-3 fusion protein (the extracelluar domain of human or cynomolgus monkey LAG-3 fused to murine IgG2a) was captured on a Fab2 goat-anti mouse Fc surface and incubated with the anti-LAG-3 antibody and the kinetics of binding was determined via Biacore analysis. The binding curves for LAG-3 mAb A, hLAG-3 mAb 1 (1.4) and hLAG-3 mAb 6 (1.1) binding to cynomolgus monkey LAG-3 are shown in FIGS. 7A-7C respectively, and the calculated ka, kd and KD are presented in Table 8. In a separate study, the binding of a bispecific Fc Region-containing diabody comprising hLAG-3 mAb 6 (1.1) to both human and cynomolgus monkey LAG-3 was investigated using Biacore analysis. In this study, the hLAG-3 mAb 6 (1.1) containing diabody was captured on a Fab2 goat-anti human Fc surface and incubated with soluble LAG-3 fusion protein (the extracelluar domain of human or cynomolgus monkey LAG-3 fused to a His tag) and the kinetics of binding was determined via Biacore analysis.

Row | Binder | Kd
1 | B1 | < 0.53 nM
2 | B2 | 458 nM
3 | B3 | 3.7 nM
